{"source": "paper PMC1931592", "binders": {"B1": {"name": "Ac-DQTD-CHO (peptide)", "peptide": "Ac-DQTD-aldehyde", "SMILES": "CC(=O)N[C@@H](CC(=O)O)C(=O)N[C@@H](CCC(N)=O)C(=O)N[C@H](C(=O)N[C@H](C=O)CC(=O)O)[C@@H](C)O"}, "B2": {"name": "Ac-DMQD-CHO (peptide)", "peptide": "Ac-DMQD-aldehyde", "SMILES": "CSCC[C@H](NC(=O)[C@H](CC(=O)O)NC(C)=O)C(=O)N[C@@H](CCC(N)=O)C(=O)N[C@H](C=O)CC(=O)O"}}, "biological_target": "Recombinant human caspase-9 (active) (human) (UniProt P55211)", "sequence (P55211 whole entry)": "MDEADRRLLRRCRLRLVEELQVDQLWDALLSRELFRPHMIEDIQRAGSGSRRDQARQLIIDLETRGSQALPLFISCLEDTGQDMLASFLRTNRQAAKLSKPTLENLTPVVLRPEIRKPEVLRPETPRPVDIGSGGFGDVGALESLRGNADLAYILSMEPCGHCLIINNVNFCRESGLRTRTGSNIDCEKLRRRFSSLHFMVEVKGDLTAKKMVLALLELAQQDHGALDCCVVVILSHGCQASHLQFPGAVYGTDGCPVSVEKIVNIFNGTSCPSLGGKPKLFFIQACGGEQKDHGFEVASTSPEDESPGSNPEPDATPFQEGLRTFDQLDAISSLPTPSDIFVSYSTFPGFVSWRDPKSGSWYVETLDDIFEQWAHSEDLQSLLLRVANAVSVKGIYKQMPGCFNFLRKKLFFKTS", "test": "enzyme inhibition assay (fluorogenic substrate cleavage); one unit of active recombinant human caspase incubated with various concentrations of peptide inhibitor in 100 mM NaCl, 50 mM HEPES, 10 mM DTT, 1 mM EDTA, 10% glycerol, 0.1% CHAPS, pH 7.4, 37°C, 30 min; then 200 μM substrate (Ac-DEVD-MCA for caspases-3 and -7, Ac-IETD-MCA for caspase-8, Ac-LEHD-MCA for caspase-9); apparent Ki = IC50/(1+[S]/Km)"}
{"binder": "B1", "values": [{"measurement": "Ki", "value": 14.5, "unit": "nM"}]}
{"binder": "B2", "values": [{"measurement": "Ki", "value": "> 200", "unit": "nM"}]}
